Data from the nanobody polyreactivity screen of Harvey et al. (2022).

Assay: yeast display, Sf9 membrane polyspecificity reagent, FACS + sequencing; frameworks hold sequencing errors
In short: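 A nanobody's polyreactivity label depends on the gate it was sorted from. Yeast display cells were stained with 10% biotinylated, detergent-solubilized Sf9 membrane reagent for 1 hour at 4 °C, enriched on streptavidin microbeads and sorted by FACS. The low and high (top ~1%) gates were set on anti-HA fluorescence for expression and streptavidin fluorescence for reagent binding.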

Sequence	polyreactivity (PSR sort gate)
QVQLVESGGGIVQAGGSLRLSCAASGFIFDAYAMGWYRQAPGKERELVAGISIGGRTIYADSVKGRFTISRDNAKNTVYLQMNSLKPEDTAVYYCAARNYRYYYGSYYRGPITNYEYWGQGTQVTVSS	low polyreactivity
QVQLVESGGGIVQAGGSLRLSCAASGFIFDQNAMGWYRQAPGKERELVAAISKRGGSTYYADSVKGRFTISRDNAKNTVYLQMNSLKREDTAVYYCATRSWGPYYYGYNHWGQGTQVTVSS	high polyreactivity
QVQLVESGGGIVQAGGSLRLSCAASGFTISRNTMGWYRQAPGKEREFVARISAYGGSTYYADSVKGRFTISRDNAKNSVYLQMNSLKPVDTAVYYCAAVYRRYGGSRYDYWGQGTQVTVSS	high polyreactivity
QVQLVESGGGIVQAGGSLRLSCAASGGIFDSYAMGWYRQAPGKERELVADITSGGSTNYADSVKGRFTISRDNAKNTVYLQMNSLKPEDTAVYYCAKEFYYSVGVNLGDSWGQGIQVTVSS	low polyreactivity
QVQLVESGGGIVQAGGSLRLSCAASGGIFDYNAMGWYRQAPGKERELVAAISGSDVSTYYADSVKGRFTISRDNAKNTVYLQMKSLKPEDTAVYYCAADAPWAYYEYDYWGQGTQVTVSS	low polyreactivity
QVQLVESGGGIVQAGGSLRLSCAASGIIFQTYAKGWYRQAPGKERELVAAISRSGGSTYYADSVKGRFTISRENSKNTVYLQMNSLKPEDTAVYYCAAYGYNVNWLKGIYWGQGTQVTVSS	high polyreactivity
QVQLVESGGGIVQAGGSLRLSCAASGIIFRAYAMGWSRQAPGKDRELVAAISWSGGSTYYADSVKGRFTISRDNAKNTVYLQMNSLKPEDTAVYYCAARRWKGYYYWGQGTQVNVSS	high polyreactivity
QVQLVESGGGIVQAGGSLRLSCAASGITFAFYDMGWYRQAPGTERELVAAISYSGGGTYYADSVKGRFTISRDNAKNTVYLQMNSLKPEDTAVYYCAADPKTHPLFGEDYWGQGTQVTVSS	low polyreactivity
QVQLVESGGGIVQAGGSLRLSCAASGITFGRNTMGWYRQAPGKERELVAAIDSGGNTYADSVKGRFTISRDNAKNTVYLQMNSLKPEDTAVYYCAVDGGEFSSYGYWGQGTQVTVSS	low polyreactivity
QVQLVESGGGIVQAGGSLRLSCAASGITFVAYDMGGYRQAPGKERELVAAITWNGDRTYYADSVKGRFTISRDNAKNTVYVEMNSLKPEDTAVYDCSAYHYYYEMDYWGQGTQVTVPS	high polyreactivity
QVQLVESGGGIVQAGGSLRLSCAASGITIQGYTMGWYRQEPGKERELVAAISSNGGRTYYADSVKGSFTISRDNAKNTVYLQMNSLKPEDTAVDYCAARKWRLIVDYWGEGTQVTVSS	high polyreactivity
QVQLVESGGGIVQAGGSLRLSCAASGLIFFTYAMGWYSQAPGKERELVAAITTGGSTNYADSVKGRFTISRDNAKKTVYLQMNSLKPEDTAVYYCAAQRVSVLLFVRHDYWGQGTQVTVSS	low polyreactivity
QVQLVESGGGIVQAGGSLRLSCAASGLIIQNNAMVWNRQAPGKERELVAAITSDGSTYADSVKGRFTISRDNAKNTVYLQMNSLKPEDTAVYYCNADGITSLPVPALDYWGQGTQVTVSS	low polyreactivity
QVQLVESGGGIVQAGGSLRLSCAASGMGWYRQAPGKERELVADITSRGGSTYYADSVKGRFTISRDNAKITVYLQMNSLKPEDTAVSYCAARKRVVQFDYWGQGTQVTVSS	low polyreactivity
QVQLVESGGGIVQAGGSLRLSCAASGNAMGWYRQAPGKERELVASINRSGGRTYYADSVKGRFTISRDNAKNTVYLQMNSLKPEDTAVYYCAARPHYDSDYWGQGTQVTVSS	low polyreactivity
QVQLVESGGGIVQAGGSLRLSCAASGNIFFWYDMGWYRQAPGKERELVATITSSGGSTYYADSVKGRFTISRDNAKNTVYLQMNSLKPEDTAVYYCNALPYYRDDYWGQGTQVTVSS	low polyreactivity
QVQLVESGGGIVQAGGSLRLSCAASGNIFHKNAMGWYRQAPGKERELVASISWSGGSTYYADSVKGRFTISRDNAKNTVYLQMNSLKPEDTAVYYCATDAFGYPGNRYALNDYWGQGTQVTVSS	low polyreactivity
QVQLVESGGGIVQAGGSLRLSCAASGNIFSYKAMGWYRQAPRTERELVDAISRSGGSTYYADSVKGRFTISRDNAKNTVYLQMNSLKPEDTAVYYCAADWRGRKYDYWGQGTQVTVSS	high polyreactivity
QVQLVESGGGIVQAGGSLRLSCAASGRIFAYYAMGWYRQAPGKERELVAAISTSGGSTYYADSVKGRFTISRDNAKNTVYLQMNSLKPEDTAVYYCAAEFGGGRSTNFDYWGQGTQVTVSS	low polyreactivity
QVQLVESGGGIVQAGGSLRLSCAASGRIFEWYAMGWYRQAPGKERELVAAITKTAGSTYYADSVKGRFTISRDNAKNTVYLQMNSLKPEDTAVYYCNAKTYHSRRKVLRFDYWGQGTQVTVSS	low polyreactivity
QVQLVESGGGIVQAGGSLRLSCAASGRIFGIYERGWLRQAPGKEREMVAGITRGDRTYADSVKGRFTISRDNAKNTVYLQMNSLKPVDTAVYYCNADVYPYKLALPAGMGYWGQGTQVTVSS	high polyreactivity
QVQLVESGGGIVQAGGSLRLSCAASGRIFYVNAMGWYRQSPGKERELVAAISRSGSSTYYADSVKGRFTISRDNAKNTVYLQMNSLKPEDTAVYYCAARYYGRSQHHFDYWGQGTQVTVSS	high polyreactivity
QVQLVESGGGIVQAGGSLRLSCAASGRIVRNYAMGWYRQAPGKERELVAGITRGGRTNYAHSVKGRFTISRDNAKNTVYLQMNSLKPEDTAVYYCNKVSSFGYYYWGQGTQVTVSS	high polyreactivity
QVQLVESGGGIVQAGGSLRLSCAASGRTFEQNVMRWYRQAPGKERELVAAITTGGSTNYADSVKGRFTISRDNAKNTVYLQMNSLKPEDTAVYYCAADRYLGGDYDYWGQGTQVTVSS	low polyreactivity
QVQLVESGGGIVQAGGSLRLSCAASGRTFPGYAMGWSRQAPGKERELVATITFSDGSTYYADSVKGRFTISRDNAKNTVYLQMNSLKPEDTAVYYCNARRSYFLRYGVNYWGQGTQVTVSS	low polyreactivity
QVQLVESGGGIVQAGGSLRLSCAASGRTFPRYAMGWYRQAPGKERELVAAISVRAGITYYADSVKGRFTISRDNAKNTVYLQMNSLKPEDTAVYYCAKDHWTTSYDEGDYWGQGTQVTVSS	low polyreactivity
QVQLVESGGGIVQAGGSLRLSCAASGRTFQANAMGWYRQAPGKERELVAVISSRGTRTYYADSVKGRFTISRDNAKNTVYLQMNSLKPEDTAVYYCAARVPSVGNQSGYDYWGQGTQVTVSS	high polyreactivity
QVQLVESGGGIVQAGGSLRLSCAASGRTFVLNALGWYRQAPGKERELVAAITLGGGSTYADSVKGRFTISRDNAQNTVYLQMNSLKPEDTAVYYCAADFHYPDFEYWGQGTQVTVSS	low polyreactivity
QVQLVESGGGIVQAGGSLRLSCAASGRTFVSYAKGWYRQAPGKERELVAAISSSGGRTYYADSVKGRFTISRDNAKNTVYLQMNSLKPEDTAVYYCNAVRFISARYDYWGQGTQVTVSS	high polyreactivity
QVQLVESGGGIVQAGGSLRLSCAASGRTLDKYTMGWYRQAPGKERELVASITSGGSTNYADSVKGRFTISRDNAKNTVYLQMNSLKPEDTAVYYCNKRRRVSKLGQGYDYWGQGTQVTVSS	low polyreactivity
